The target in the experiment is full-length SARS-CoV-2 spike protein (residues 13-1273 of UniProtKB P0DTC2) fused to green fluoresce (SARS-CoV-2) (UniProt P0DTC2). As to the kind of experiment: flow cytometry on cells. In general terms: A flow cytometer gives signals particle by particle.

The source of these data is article PMC7775388.

recombinant ACE2-Fc fusion protein (residue Gln18-Ser760 fused to human Fc), sequence (Q9BYF1 18-740 limits assumed): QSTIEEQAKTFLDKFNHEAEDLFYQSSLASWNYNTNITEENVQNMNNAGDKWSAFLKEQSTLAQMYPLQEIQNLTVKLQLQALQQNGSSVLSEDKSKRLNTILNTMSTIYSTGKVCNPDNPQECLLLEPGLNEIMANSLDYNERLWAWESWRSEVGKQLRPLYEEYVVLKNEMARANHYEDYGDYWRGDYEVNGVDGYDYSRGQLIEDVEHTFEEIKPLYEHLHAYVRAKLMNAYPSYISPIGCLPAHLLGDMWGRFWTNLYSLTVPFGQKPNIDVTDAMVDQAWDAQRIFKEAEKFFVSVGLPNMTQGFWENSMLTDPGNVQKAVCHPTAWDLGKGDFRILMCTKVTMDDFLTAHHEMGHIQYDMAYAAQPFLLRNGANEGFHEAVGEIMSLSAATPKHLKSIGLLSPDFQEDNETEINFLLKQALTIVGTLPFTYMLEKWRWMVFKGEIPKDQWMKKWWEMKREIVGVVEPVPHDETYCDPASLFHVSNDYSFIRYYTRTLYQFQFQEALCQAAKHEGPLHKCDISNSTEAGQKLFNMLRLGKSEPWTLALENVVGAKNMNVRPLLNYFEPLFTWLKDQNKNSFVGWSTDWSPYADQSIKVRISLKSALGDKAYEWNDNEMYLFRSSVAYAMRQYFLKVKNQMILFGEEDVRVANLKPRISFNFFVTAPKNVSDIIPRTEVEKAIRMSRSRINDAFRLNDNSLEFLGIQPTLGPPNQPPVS

“recombinant ACE2-Fc fusion protein (residue Gln18-Ser760 fused to human Fc)” gave a Kd of 10.9 nM.

For orientation: Kd means a measure of binding affinity in units of concentration.
